One may read the EC50 (read off the curve) as the concentration giving half of the maximal effect. One may read the Kd as a measure of binding affinity in units of concentration. A higher Kd goes with a looser complex. The term koff denotes the rate constant with which the complex falls apart. A lower koff goes with a long-lived complex. A word on the kon: it is the rate constant with which the complex forms. The low end stands for slow association, the high end for fast association. What is called IC50 is the concentration that gives 50% inhibition. Read a low IC50 as inhibition by little substance.

The record followed here is patent publication US20090081238A1 (Genentech, published 2009).

The target in assay [1] is T1, hFLAG-EGF34+NRR-His6 (101V), the human Notch1 NRR immunogen (Notch1 V1307-Q1733) (human, UniProt P46531 1307-1733).
T1 construct: also called hNotch1 NRR; human NRR1
T1 sequence (P46531 other isoform, or with tags, fused parts or gaps limits assumed): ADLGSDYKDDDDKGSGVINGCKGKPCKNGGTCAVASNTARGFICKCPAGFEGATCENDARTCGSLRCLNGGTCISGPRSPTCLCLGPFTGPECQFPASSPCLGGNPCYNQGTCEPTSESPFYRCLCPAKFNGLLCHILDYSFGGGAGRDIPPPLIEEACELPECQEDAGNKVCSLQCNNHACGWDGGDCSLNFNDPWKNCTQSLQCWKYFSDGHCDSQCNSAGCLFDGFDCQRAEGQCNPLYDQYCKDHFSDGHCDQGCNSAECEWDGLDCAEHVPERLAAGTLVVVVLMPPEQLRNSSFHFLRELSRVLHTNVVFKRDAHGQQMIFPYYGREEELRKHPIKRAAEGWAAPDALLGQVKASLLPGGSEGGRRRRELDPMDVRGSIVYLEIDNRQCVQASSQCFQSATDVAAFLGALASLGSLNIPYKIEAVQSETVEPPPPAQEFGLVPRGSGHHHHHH
Nature of the assay: ELISA, target coated on the plate at 1 ug/ml, IgG titrated in 3-fold steps, detected with peroxidase anti-human Fab; A630. How it is done: (§1) 1 μg/ml of proteins in PBS, pH 7.4, were coated on ELISA plates (Nunc Maxisorp) at 4° C. overnight. Plates were blocked with Casein blocker in PBS (phosphate buffered saline; Pierce) for one hour at room temperature. Serial 3-fold dilutions of anti Notch1 NRR IgGs or irrelevant IgG in PBST buffer (PBT buffer (PBS+0.05% (v/v) Tween 20) with 0.5% (w/v) BSA) were added to the plates and incubated for one hour at room temperature. The plates were then washed with PBST and bound antibodies were detected with peroxidase-conjugated goat anti human Fab specific IgG (Sigma). TMB substrate (3,3′,5,5′-etramethylbenzidine) was used and absorbance at 650 nm was read using a standard ELISA plate reader. Absorbance was plotted against concentrations of IgGs using KaleidaGraph (Synergy Software).

Another assay addresses T2, hFLAG-NRR-His6 (102V) (human, UniProt P46531 1447-1733).
T2 construct: no EGF-like repeats; not shown: FLAG tag; thrombin cleavage site and HIS tag
The assay is described as above. How it is done:
as §1

Assay [2] concerns the target T3, mFLAG-EGF34+NRR-His6, the mouse Notch1 NRR immunogen (Notch1 V1307-Q1723) (mouse, UniProt Q01705 1307-1723).
T3 construct: the rest carries an N-terminal FLAG tag and a C-terminal His tag; also called mNotch1 NRR; murine NRR1
The description is as above. On the procedure:
as §1

Assay [3] deals with mEGF34+NRR-L1597H-FLAG-TEV-Fc (mouse) (UniProt Q01705). The description is as above.
Sequence of mEGF34+NRR-L1597H-FLAG-TEV-Fc (mouse) (Q01705 1307-1723, stated change not applied): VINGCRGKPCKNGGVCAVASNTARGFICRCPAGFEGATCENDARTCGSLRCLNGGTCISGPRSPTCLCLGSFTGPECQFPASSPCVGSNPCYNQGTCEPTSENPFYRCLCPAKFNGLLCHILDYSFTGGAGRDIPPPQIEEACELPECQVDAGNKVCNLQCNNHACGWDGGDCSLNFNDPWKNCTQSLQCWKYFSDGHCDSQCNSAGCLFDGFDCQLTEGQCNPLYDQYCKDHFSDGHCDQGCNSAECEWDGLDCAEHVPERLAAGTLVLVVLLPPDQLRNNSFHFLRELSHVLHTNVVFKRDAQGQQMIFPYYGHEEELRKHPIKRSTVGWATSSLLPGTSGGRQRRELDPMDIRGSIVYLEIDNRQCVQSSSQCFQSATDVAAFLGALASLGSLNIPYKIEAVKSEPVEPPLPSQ
In assay [4] the target is T1, hFLAG-EGF34+NRR-His6 (101V), the human …. As to the kind of experiment: SPR (BIAcore-3000), IgG captured by anti-human IgG, NRR1-ECD injected 3.9-500 nM, 25 C. How it is done:
(§2) To further characterize the binding affinity and binding kinetics of the anti-Notch1 NRR Mabs, surface plasmon resonance (SRP) measurement with a BIAcore™-3000 was used (BIAcore, Inc., Piscataway, N.J.). Briefly, carboxymethylated dextran biosensor chips (CM5, BIAcore Inc.) were activated with N-ethyl-N′-(3-dimethylaminopropyl)-carbodiimide hydrochloride (EDC) and N-hydroxysuccinimide (NHS) according to the supplier's instructions. Rabbit anti human antibody (Pierce) was diluted with 100 mM sodium acetate, pH 4.8, into 20 μg/ml before injection at a flow rate of 5 μl/minute to achieve approximately 3000 response units (RU) of coupled antibody. Next, 1M ethanolamine was injected to block unreacted groups. Anti-NRR1 mab (formatted as a full-length IgG) was captured by rabbit anti-human IgG coated on the chips to achieve approximately 200 response units (RU). For kinetics measurements, two-fold serial dilutions of human NRR1-ECD or murine NRR1-ECD proteins (3.9 nM to 500 nM) were injected in PBT buffer (PBS with 0.05% Tween 20) at 25° C. with a flow rate of 30 μl/min. Association rates (kₒₙ) and dissociation rates (koff) were calculated using a simple one-to-one Langmuir binding model (BIAcore Evaluation Software version 3.2). The equilibrium dissociation constant (KD) was calculated as the ratio koff/kₒₙ.
A general note: In SPR one partner is held on a chip, and binding of the other changes the refractive index at the surface.

The target of assay [5] is T3, mFLAG-EGF34+NRR-His6, the mouse Notch1 …. The assay is described as above. On the procedure:
as §2

Assay [6] deals with T1, hFLAG-EGF34+NRR-His6 (101V), the human …. Nature of the assay: competitive phage-binding ELISA: phage-displayed Fab, soluble NRR1 titrated against coated NRR1. How it is done: (§3) To identify the phage antibodies that bound to both human and murine Notch1 NRR, all unique clones were tested for binding to human and murine Notch1 by ELISA. The affinities of phage antibodies were ranked using single spot competition ELISA as described below in this Example. The phage antibody IC50 values were further determined using competitive phage-binding ELISA essentially described in Lee, C. V., et al. (2004) J Mol Biol 340, 1073-93. Briefly, NUNC 96 well Maxisorp immunoplates were coated overnight at 4° C. with 1 μg/ml human NRR1 or murine NRR1, and were blocked for 1 hour at room temperature with blocking buffer PBST (PBS and 1% BSA and 0.05% Tween 20). Phage was mixed with serial dilution of human or murine NRR1 at room temperature for 1 hour before the mixture was added to human and murine NRR1 coated plate. Bound phage were detected with anti-M13 HRP conjugates, developed with TMB substrate for approximately 5 minutes, quenched with 1M H₃PO₄, and read spectrophotometrically at 450 nm.
For orientation: An ELISA detects its analyte on a solid surface through an enzyme-linked reagent.

For assay [7], the target named is T3, mFLAG-EGF34+NRR-His6, the mouse Notch1 …. The description is as above. On the procedure:
as §3

Substitutions are numbered along the chain they refer to.

T3 sequence (Q01705 other isoform, or with tags, fused parts or gaps): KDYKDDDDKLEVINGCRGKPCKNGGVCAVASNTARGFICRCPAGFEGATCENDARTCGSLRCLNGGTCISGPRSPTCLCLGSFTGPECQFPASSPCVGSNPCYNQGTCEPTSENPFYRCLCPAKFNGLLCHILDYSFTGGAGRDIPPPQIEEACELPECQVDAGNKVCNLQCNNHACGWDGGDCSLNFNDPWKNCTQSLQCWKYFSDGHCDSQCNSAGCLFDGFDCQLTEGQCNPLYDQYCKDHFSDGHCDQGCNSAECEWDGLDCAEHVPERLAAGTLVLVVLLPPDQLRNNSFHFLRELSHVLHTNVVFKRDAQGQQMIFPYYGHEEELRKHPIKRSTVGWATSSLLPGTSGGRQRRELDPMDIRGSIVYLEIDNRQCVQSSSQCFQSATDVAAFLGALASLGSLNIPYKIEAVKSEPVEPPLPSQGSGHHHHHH
T2 sequence (P46531 1447-1733): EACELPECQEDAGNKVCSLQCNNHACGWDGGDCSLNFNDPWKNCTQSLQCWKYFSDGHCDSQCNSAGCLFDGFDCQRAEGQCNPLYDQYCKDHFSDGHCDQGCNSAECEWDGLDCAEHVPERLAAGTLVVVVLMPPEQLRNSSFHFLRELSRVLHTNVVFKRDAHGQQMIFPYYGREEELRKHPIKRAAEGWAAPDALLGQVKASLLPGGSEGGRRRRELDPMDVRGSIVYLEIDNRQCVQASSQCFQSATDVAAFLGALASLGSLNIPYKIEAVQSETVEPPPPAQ

B1: Antibody A-1 (antibody, V domains shown)
VH: EVQLVESGGGLVQPGGSLRLSCAASGFTFSSYWIHWVRQAPGKGLEWVARINPPNGSAHYADSVKGRFTISADTSKNTAYLQMNSLRAEDTAVYYCARGSGFRWVMDYWGQGTLVTVSS
VL: DIQMTQSPSSLSASVGDRVTITCRASQDVSTAVAWYQQKPDGTVKLLIYSASFLYSGVPSRFSGSGSGTDFTLTISSLQPEDFATYYCQQSYTTPATFGQGTKVEIKR
notes: also called Antibody A-1-hIgG1
B1: the “EC50 (read off the curve)” value in assay [1] was around 0.2 µg/mL; with hFLAG-NRR-His6 (102V) it was around 0.1 µg/mL; in assay [2] it was around 0.07 µg/mL; in assay [3] it was 0.06 µg/mL. Also, the figures for the Kd in assay [4] and in assay [5] were 3.43 nM and 3.88 nM, respectively. Also, the koff in assay [4] came out at 0.00023 s⁻¹; in assay [5], 0.00033 s⁻¹. In addition, the kon amounted to 67000 M⁻¹ s⁻¹ in assay [4] and 85000 M⁻¹ s⁻¹ in assay [5].

B2: Antibody A-3 (phage-displayed Fab clone) (Fab, V domains shown)
VH: B1 VH with P54A, A58T, H59R
VL: DIQMTQSPSSLSASVGDRVTITCRASQDVSTAVAWYQQKPDGTVKLLIYSASFLYSGVPSRFSGSGSGTDFTLTISSLQPEDFATYYCQQSFSTPATFGQGTKVEIK
Regarding B2, the IC50 in assay [6] amounted to 0.5 nM; in assay [7], 2.5 nM.

B3: Antibody A-1 (phage-displayed Fab clone) (Fab, V domains shown)
VH: B1 VH
VL: B1 VL
For the molecule B3, the figures for the IC50 in assay [6] and in assay [7] were 0.8 nM and 0.6 nM, respectively.

B4: Antibody A-3 (antibody, V domains shown)
VH: B1 VH with P54A, A58T, H59R
VL: B2 VL
In assay [4], B4 registered a Kd of 5.88 nM, a koff of 0.0004 s⁻¹ and a kon of 68000 M⁻¹ s⁻¹. In assay [5], binding was put at a Kd of 13 nM, the koff worked out at 0.0012 s⁻¹ and the kon was found to be 92000 M⁻¹ s⁻¹.

B5: Antibody A-2 (phage-displayed Fab clone) (Fab, V domains shown)
VH: B1 VH with G56R, A58N, H59Q
VL: B1 VL with S91F, A96S
Consider B5, for which the IC50 in assay [6] and in assay [7] was 0.5 nM in each case.

B6: Antibody A-2 (antibody, V domains shown)
VH: B1 VH with G56R, A58N, H59Q
VL: B1 VL with S91F, A96S
notes: also called Antibody A-2-hIgG1
B6: the “EC50 (read off the curve)” value in assay [1] is around 0.07 µg/mL; with hFLAG-NRR-His6 (102V), around 0.06 µg/mL; in assay [2], around 0.05 µg/mL; in assay [3] it was 0.04 µg/mL. Besides, the Kd in assay [4] amounted to 2.53 nM; in assay [5], 3.09 nM. In addition, the koff is 0.00022 s⁻¹ in assay [4] and 0.00034 s⁻¹ in assay [5]. Besides, the kon in assay [4] was 87000 M⁻¹ s⁻¹; in assay [5], 110000 M⁻¹ s⁻¹.
